# Data taken from US20260374878 (published 2026).
# T1: CLL1 (expressed on K562-CLL1 cells) (human, UniProt Q5QGZ9)
# T1 chain: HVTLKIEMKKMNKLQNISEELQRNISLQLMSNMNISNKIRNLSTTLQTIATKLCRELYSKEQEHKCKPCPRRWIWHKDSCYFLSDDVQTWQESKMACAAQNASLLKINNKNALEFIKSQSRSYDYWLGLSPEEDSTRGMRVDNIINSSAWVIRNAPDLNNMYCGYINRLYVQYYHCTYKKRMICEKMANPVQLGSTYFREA
# Target: T1, CLL1 (expressed on K562-CLL1 cells)
# Test: FACS, K562-CLL1 cells, room temperature, bivalent Fc fusion
binder,measurement,value
CLL1-VHH-16-hFc (antibody) chain 1: DVQLQESGGGLVQPGGSLRLSCAASGFTFGSYDMTWVRQAPGKGPEWVSGINSGGSSTYYADSVKGRFTISRDNAKNTLYLQMNSLKPEDTAVYYCATIDRLSTVVAGTYQPSEEYDYWGQGTQVTVSS chain 2: not shown,Kd,5 nM
